For the data set the following is noted: Bos taurus; pH 7; Thermal; Absorbance; Sodium phosphate 100 mM; whole UniProt chain shown.

Consider one protein from FireProtDB (doi:10.1021/bi990893b).

One may read the Tm as the temperature at the midpoint of the melting transition.

B1: Cytochrome b5 wild type, P00171 (protein)
chain: MAEESSKAVKYYTLEEIQKHNNSKSTWLILHYKVYDLTKFLEEHPGGEEVLREQAGGDATENFEDVGHSTDARELSKTFIIGELHPDDRSKITKPSESIITTIDSNPSWWTNWLIPAISALFVALIYHLYTSEN
Consider B1, for which the Tm was 67.2 °C and the “unfolding enthalpy (van 't Hoff)” value is 95.1 kcal/mol.
